In US20210292396A1:
“And” between values parts separate entries of the source, which are not always exact repeats. Equal entries are not always repeated.

Assays:
Assay in all cases: cell-based or functional assay
[1] = biological target: HIV Env of isolate ZM249M.PL1 (HIV)
[2] = biological target: HIV Env of isolate 1006_11_C3_1601 (HIV)
[3] = biological target: HIV Env of isolate T250-4 (HIV)
[4] = biological target: HIV Env of isolate 6952.v1.c20 (HIV)
[5] = biological target: HIV Env of isolate CNE5 (HIV)
[6] = biological target: HIV Env of isolate P1981_C5_3 (HIV)
[7] = biological target: HIV Env of isolate RHPA4259.7 (HIV)
[8] = biological target: HIV Env of isolate Ce2060_G9 (HIV)
[9] = biological target: HIV Env of isolate PVO.4 (HIV)
[10] = biological target: HIV Env of isolate T255-34 (HIV)
[11] = biological target: HIV Env of isolate 191084_B7-19 (HIV)
[12] = biological target: HIV Env of isolate T251-18 (HIV)
[13] = biological target: HIV Env of isolate Du172.17 (HIV)
[14] = biological target: HIV Env of isolate BJOX028000.10.3 (HIV)
[15] = biological target: HIV Env of isolate T278-50 (HIV)
[16] = biological target: HIV Env of isolate 6041.v3.c23 (HIV)
[17] = biological target: HIV Env of isolate 3103.v3.c10 (HIV)
[18] = biological target: HIV Env of isolate Q23.17 (HIV)
[19] = biological target: HIV Env of isolate 1394C9G1(Rev-) (HIV)
[20] = biological target: HIV Env of isolate ZM233M.PB6 (HIV)
[21] = biological target: HIV Env of isolate Du422.1 (HIV)
[22] = biological target: HIV Env of isolate HIV-001428-2.42 (HIV)
[23] = biological target: HIV Env of isolate WITO4160.33 (HIV)
[24] = biological target: HIV Env of isolate 1056_10_TA11_1826 (HIV)
[25] = biological target: HIV Env of isolate REJO4541.67 (HIV)
[26] = biological target: HIV Env of the 113-member cross-clade virus panel (Table 6)
[27] = biological target: HIV Env of isolate 6480.v4.c25 (HIV)
[28] = biological target: HIV Env of isolate 62357_14_D3_4589 (HIV)
[29] = biological target: HIV Env of isolate CNE52 (HIV)
[30] = biological target: HIV Env of isolate Du156.12 (HIV)
[31] = biological target: HIV Env of isolate Ce1176_A3 (HIV)
[32] = biological target: HIV Env of isolate 6811.v7.c18 (HIV)

B1: ePGT121.15.H2.L1 (antibody, V domains shown)
VH: QMQLQESGPGLVKPGETLSLTCSVSGASISSSYWSWLRETPGKGLEWIGYTHHSGDTNYAPSLKSRVHLGLHPSKNQVSLSLTSVTAADTAVYYCARTLHGRRIYGVVAFNEWFTYFYWEVWGKGTQVTVSS
VL: SDISVAPGETVRISCGGESIGSRAVQWYQHRAGQAPKLIIYNNQDRPPGIPERFSGSPDIDFGTTATLTITNVEAGDEATYYCHIWDSRRPTNWVFGGGTTLTVL
neutralization (Table 6 value) [1]: 0.00837
neutralization (Table 6 value) [2]: 0.00175
neutralization (Table 6 value) [3]: 0.00084
neutralization (Table 6 value) [4]: 0.000842
neutralization (Table 6 value) [5]: 0.743
neutralization (Table 6 value) [6]: 0.000449
neutralization (Table 6 value) [7]: 0.00156
neutralization (Table 6 value) [8]: 0.0132
neutralization (Table 6 value) [9]: 0.00346
neutralization (Table 6 value) [10]: 0.00375 and 0.00245
neutralization (Table 6 value) [11]: 0.00196
neutralization (Table 6 value) [12]: 0.0252
neutralization (Table 6 value) [13]: 0.000836
neutralization (Table 6 value) [14]: 0.00577
neutralization (Table 6 value) [15]: 0.0127
neutralization (Table 6 value) [16]: 0.275
neutralization (Table 6 value) [17]: 0.00436
neutralization (Table 6 value) [18]: 0.00106
neutralization (Table 6 value) [19]: 0.00203
neutralization (Table 6 value) [20]: 0.0048 and 0.00672
neutralization (Table 6 value) [21]: 0.00326
neutralization (Table 6 value) [22]: 0.00136
neutralization (Table 6 value) [23]: 0.00428 and 0.00241
neutralization (Table 6 value) [24]: 0.000864
neutralization (Table 6 value) [25]: 0.435
Breadth [26]: 77%
GeoMean [26]: 0.004
neutralization (Table 6 value) [27]: 4.5e-05
neutralization (Table 6 value) [28]: 0.0109
neutralization (Table 6 value) [29]: 0.0469
neutralization (Table 6 value) [30]: 0.000443
neutralization (Table 6 value) [31]: 0.00206
neutralization (Table 6 value) [32]: 0.00194
